For the assay, the target named is HLA-A*11:01. Description: IEDB peptide-MHC binding, purified MHC/competitive/radioactivity; ≥ and ≤ were set here for values at or beyond the usual limits of such assays.
The mark [1] stands for this setting: source organism: Human immunodeficiency virus 1.
Setting [2] is: source organism: Hepatitis B virus.
[3] abbreviates: source organism: Influenza A virus (A/Puerto Rico/8/1934(H1N1)).

As usually defined, the IC50 is the concentration that inhibits the measured activity by half. As for ASQIYAGIK, the half-maximal inhibitory concentration (IC50) under setting [1] was 18 nM. Regarding ATQIPSYKK, where the note is “source organism: Homo sapiens”, the IC50 worked out at 128 nM. Take AVDLSHFLK: under setting [1], the IC50 came out at 5 nM. Still for that read-out and setting: then AVFIHNFKRK, with 7.1 nM. As for AVNHYFKTR, the IC50 under setting [2] was 61 nM. The same measure, in the same setting: then CALPFTSAR, with 316 nM. With ESLFRAVITK, the IC50 (source organism: Homo sapiens) is 1150 nM.

Turning to GIPHPAGLK, the IC50 under setting [1] is 35 nM. Regarding GSTHVSWPK, the concentration for half-maximal inhibition (IC50) under setting [2] was 3.1 nM.

As to GTDNSVVLSR, the IC50 under setting [2] is 107 nM. On to GTKVVPRGK, for which the concentration for half-maximal inhibition (IC50) under setting [3] is 72 nM.

As for GVTAACSHAGK, under setting [3], the IC50 is 30 nM. For IMPARFYPK, the half-inhibitory concentration (IC50) under setting [2] was 4.1 nM. Still for that read-out and setting: then KVFVLGGCR, with 6.5 nM. Consider KVLFLDGIDK, for which the half-inhibitory concentration (IC50) under setting [1] was 7.7 nM. Same read-out and setting: then KVYLAWVPAHK, with 7.6 nM. On to LACAGLAYK, for which the half-inhibitory concentration (IC50) (source organism: Plasmodium falciparum) was 207 nM.

On to LSLDVSAAFY, for which the concentration for half-maximal inhibition (IC50) under setting [2] turned out to be 545 nM.

LTEKEGSYPK: under setting [3], the IC50 stood at 121 nM. Take MTKILEPFR: under setting [1], the IC50 came to 378 nM.

For the sequence NVKNLYEKVK, the IC50 under setting [3] worked out at 51 nM. On the same count and under the same terms, then PVTIGECPK, with 2.6 nM.

On to QIYQEPFKNLK, for which the IC50 under setting [1] turned out to be 21 nM.

Regarding QMAVFIHNFK, under setting [1], the concentration for half-maximal inhibition (IC50) was 8.4 nM.

As for RAKWNNTLK, the IC50 under setting [1] was 188 nM. With RLADEGLNR, the IC50 under setting [2] came out at 245 nM. With RMGVQMQRFK, the IC50 under setting [3] worked out at 94 nM.

As for TTDLEAYFK, the IC50 under setting [2] turned out to be 6.5 nM. For TVQPIVLPEK, the IC50 under setting [1] is 2.4 nM. The same measure, in the same setting: then YLAWVPAHK, with 106 nM.

Source of the values: the Immune Epitope Database (IEDB).
